Data as given in patent publication US6054163.

The substances below were run against piscicolin 126 (Carnobacterium piscicola JG126).

| Substance | residual bacteriocin activity after enzyme treatment (% of original activity; bioassay with Listeria monocytogenes 4A) [%] |
| --- | --- |
| β-Chymotrypsin (enzyme) | 0 |
| α-Chymotrypsin (enzyme) | 0 |
| Pepsin (enzyme) | 100 |
| Protease I (enzyme) | 0 |
| Protease XXIII (enzyme) | 0 |
| Trypsin (enzyme) | 6 |
| Lysozyme (enzyme) | 100 |
| Protease XIV (enzyme) | 3 |
| Lipase (enzyme) | 100 |
| Catalase (enzyme) | 100 |
